Measured values from patent publication US20230001007A1, “Glycan-Interacting Compounds and Methods of Use” (Seagen Inc., priority 2017, published 2023).

Experiments:
[1] = system: Primary patient CRC samples; experiment: STn expression in primary patient CRC samples by flow cytometry; assay type: cell-based; conditions: % of viable CD45−/CD34− population
Text: Primary patient CRC samples were probed by flow cytometry with hSIA101 and two commercial antibodies B72.3 and CC49. All 10 samples tested were STn positive. In the table, % STn is expressed as % of viable CD45−/CD34− population. STn expression was often more robustly identified with hSIA101 than the commercial antibodies.

normal human tissues = experiment: Tissue cross-reactivity study, frozen tissue sections; assay type: binding; design: key to tissue staining: 1+=weak staining; 2+=moderate staining; 3+=strong staining; 4+=intense staining; Neg=negative; freq=frequent (staining in >75%-100% of cells); occ=occasional (staining in >25%-50% of cells); rare refers to staining in 1-5% of cells; conditions: for tissue staining: Human, 1-3 μg/ml
Method: (§1) Tissue cross-reactivity studies were conducted to assess the binding profile (both on- and potential off-target binding) to human and relevant species used in nonclinical safety testing. Humanized anti-STn antibodies were examined for binding to a panel of normal human, rat, mouse, and cynomolgus monkey tissues. The study was conducted on […] normal frozen tissue sections at 1-3 μg/ml: heart, brain, kidney, stomach, lung, small intestines, colon, liver, pancreas, spleen and bone marrow. The positive control was a human pancreatic neoplasm that contained STn positive cancer cells and the negative control was normal stromal cells contained within the same specimen. Staining across all normal tissues was restricted to the cytoplasm. Additional analyses were conducted without primary antibody or using isotype control IgG as negative controls.
(§2) Antibodies were also found to cross react with similar types of tissue from Cynomolgus monkey (see Table 17) and rat (not shown).

MDA-MB-231-STn cells = experiment: Flow cytometry-based binding analysis; conditions: 0 to 300 nM, read-out: MDA-MB-231-STn cell binding [EC50 (nM)]
Method: Humanized IgG1 antibodies, prepared as described above, were subjected to characterization analysis including flow cytometry-based binding analysis with MDA-MB-231-STn cells; binding analysis by BSM ELISA; and glycan array analysis.
In flow cytometry-based binding studies, antibodies were screened over a concentration range of 0 to 300 nM, comparing binding to MDA-MB-231 cells with or without transfection-induced STn expression. Binding was determined using an anti-human APC conjugated secondary antibody and only live cells were considered (based on propidium iodide negative gating). 5,000 events were collected per sample on average. Data were analyzed using FlowJo software (Asland, Oreg.) and resulting APC means and % APC were obtained. […] Human isotype IgG1 antibody was used as an isotype negative control. Epidermal growth factor receptor (LA22, EMD Millipore, Billerica, Mass.) was used as a positive control.

[2] = system: cynomolgus monkey tissues; experiment: Tissue cross-reactivity study, frozen tissue sections; assay type: binding; design: key: 1+=weak staining; 2+=moderate staining; 3+=strong staining; 4+=intense staining; Neg=negative; freq=frequent (staining in >75%-100% of cells); occ=occasional (staining in >25%-50% of cells); rare refers to staining in 1-5% of cells; conditions: Cyno, 1-3 μg/ml
Method: as §1, §2

HT29 = experiment: STn expression on CRC line by flow cytometry using anti-STn antibodies; assay type: cell-based; conditions: detected using hSIA101
Method: (§3) Mouse antibodies were characterized for in vitro and in vivo efficacy in breast, colon and ovarian cancer models. The antibodies were used to identify CRC cell lines that express STn on the surface. Five CRC lines were incubated in vitro and grown to confluency. % STn expression was determined by flow cytometry using anti-STn antibodies. Approximately 30-70% of cultured SW403, COL0205 and LS174T cells naturally expressed STn on the surface (as detected using mSIA103), while HT29 and RKO had very little to no detectable STn (as detected using hSIA101) on their cell surface (see Table 6).

RKO = experiment: as above; assay type: cell-based; conditions: detected using hSIA101
Method: as §3

[3] = system: MDA-MB-231 cells transfected for enhanced expression of STn (STn positive cells); experiment: ADC cytotoxicity assay ([…]-GLO); assay type: cell-based; conditions: MMAE-conjugated ADC versions; 72 hours; kill of STn positive cells
Method: MMAE-conjugated ADC versions of hSIA101, hSIA102, and hSIA103 were assessed in an ADC cytotoxicity assay using MDA-MB-231 cells (parental or transfected for enhanced expression of STn). Parental cells were grown in Eagle's Minimum Essential Medium (EMEM) supplemented with 10% FBS, lx Pen/Strep and 45 μg/mL gentamycin. STn positive cells were grown in the same media except with the addition of 1 mg/mL G418 for antibiotic selection. Cells were seeded separately (4,000 cells/well for parental cells or 2,000/well for STn positive cells) in 96-well plates using proper media described above. Cells were grown overnight. After 16-20 hours, cells were treated with varying concentrations of test antibodies in triplicate (50 nM to 0.012 nM) for 72 hours. Then, cells were analyzed using an ADC […]-GLO® luminescent cell viability assay kit (Promega, Madison, Wis.) to determine the amount of ATP present, an indicator of metabolically active cells. The assay uses a single reagent that is added directly to the cultured cells in serum-supplemented medium. The reagent lyses the cells and generates a luminescent signal proportional to the amount of ATP present. Luminescent signals were analyzed and used to calculate the half-maximal inhibitory concentration (IC50) values for each antibody used based on the concentration required to kill STn positive cells at half-maximal levels (see Table 9).

[4] = Small Intestine Epithelial Cells

B1: hSIA101 (antibody, V domains shown)
VH: EVQLVQSGAEVKKPGASVKVSCKASGYTFTDHAIHWVRQAPGQGLEWMGYFSPGNDDIKYNEKFRGRVTMTADKSSSTAYMELRSLRSDDTAVYFCKRSLSTPYWGQGTLVTVSS
VL: DIVMTQSPDSLAVSLGERATINCKSSQSLLNRGNHKNYLTWYQQKPGQPPKLLIYWASTRESGVPDRFSGSGSGTDFTLTISSLQAEDVAVYYCQNDYTYPYTFGQGTKVEIK
% STn+ ([1]; Sample 160093-2, Colon): 22.9%
% STn+ ([1]; Sample 160101-2, Colon): 10%
% STn+ ([1]; Sample 160102-2, Colon): 12.9%
% STn+ ([1]; Sample 160104-2, Colon Met to Liver): 47.8%
% STn+ ([1]; Sample 160115-2, Colon): 5.4%
% STn+ ([1]; Sample 160127-2, Colon): 4.2%
% STn+ ([1]; Sample 160149-1, Colon): 22.7%
% STn+ ([1]; Sample 160151-1, Colon): 19.6%
% STn+ ([1]; Sample 169068-1, Colon): 10.9%
% STn+ ([1]; Sample 1601666, Colon): 29.4%
staining of cerebrum, cerebellum, kidney and liver (normal human tissues): did not stain
staining of positive control tissue (pancreatic neoplasm) (normal human tissues): strong membrane staining
tissue staining (normal human tissues; Colon Epithelial Cells): 1+ freq (cytoplasm)
tissue staining (normal human tissues; Colon Vessel): Neg
tissue staining (normal human tissues; Heart Vessel): 2+ rare (cytoplasm)
tissue staining (normal human tissues; Lung Epithelium): Neg
tissue staining (normal human tissues; Pancreas Vessel): Neg
tissue staining (normal human tissues; [4]): 2-4+ freq (cytoplasm)
tissue staining (normal human tissues; Spleen Vessel): 2-3+ freq (cytoplasm)
tissue staining (normal human tissues; Stomach Epithelial Cells): 2-3+ freq (cytoplasm)
tissue staining (normal human tissues; Stomach Vessel): Neg
cross-reactivity with normal human tissues (normal human tissues; among the three tested antibodies): lowest cross-reactivity
staining on cell membranes in any tissue (normal human tissues; normal tissues): No staining was observed
EC50 (MDA-MB-231-STn cells): 2 nM
tissue staining ([2]; Colon Epithelial Cells): Neg
tissue staining ([2]; Colon Vessel): 4+ freq (cytoplasm)
tissue staining ([2]; Heart Vessel): Neg
tissue staining ([2]; Lung Epithelium): 2-3+ freq (cytoplasm)
tissue staining ([2]; Pancreas Vessel): 2-3+ freq (cytoplasm)
tissue staining [2, 4]: 3-4+ freq (cytoplasm)
tissue staining ([2]; Spleen Vessel): Neg
tissue staining ([2]; Stomach Epithelial Cells): 2-3+ occ (cytoplasm)
tissue staining ([2]; Stomach Vessel): 2+ occ (cytoplasm)
% STn expression (HT29): Low to non-detectable
% STn expression (RKO): Low to non-detectable
IC50 [3]: 5.2 nM
